Measurements published in a protein production outcome set (Wang et al. 2014).

Assay: label from the status in PepcDB records

Sequence: MKFRRHTKAIRSLAGSLISHASAFAPALFAAIIAAIVVWVATNWRLERSLADERSVVAGELATISSRLQTNLNSNVKLLQGLAAGIAVDPAMGQNRFSKLAAQILQPDSQLRSFAAAPDMVVQWVYPETGNEKAIGLDYRKNEKQRAAAMLARNTHNIVLTGPVELVQGGTAFVVRCPVYIDDGNSQIFWGLLSGIIDIPRLYRDSGLGSTDLEIAISTTPEPNSPKQVFFGGLETFEKKPVVASVDMTYGRWSLAALPRHGWGQNNGIGTFELYASLLALCVVAPIVWVGFLTKSRQKTIEKLRLHKSKLVRARQRLEHLSLHDALTGLPNRRFVDQMISQPPRPDPQDRLILIHIDLDRFKEINDTKGHAGGDMVLQTTASRLADLTGPNDVAARIGGDEFVFASWSTDPEPKAAELARQIVDALQQTIFIDGAGYVVGASVGVAWETESARDRDLGQLLLNADLALYEAKKAGRGRAAVFTEELRSAAIHAKELADEFNQALERDELVAFFQPQFNANTLDIAGVEALARWDHPRKGLLGPNAFLDAAEKLGRSGDMDRLILQKALFELTRWDGLGMHIPRVSVNISARRLAQANLLAELSALPAAKDRLCFELLETISFDELQPALNEVIPAIKALGIEIEIDDFGTEHASIVSLLRFEPRRLKIDREIIKPIIASPSQRRLVSSIIEIGRSQNIDIVAEGVETMEHAKILKDLGCHLLQGYALARPMSSDQLIEFCRMKGTGTAKASR
- protein production: failed

Sequence: MKPLRKIRLGIVGCGIAARELHLPALKNLSHLFEITAVTSRTRSHAEEFAKMVGNPAVFDSYEELLESGLVDAVDLTLPVELNLPFIEKALRKGVHVICEKPISTDVETGKKVVELSEKSEKTVYIAENFRHVPAFWKAKELVESGAIGDPVFMNWQIWVGMDENNKYVHTDWRKKPKHVGGFLSDGGVHHAAAMRLILGEIEWISAVAKDLSPLLGGMDFLSSIFEFENGTVGNYTISYSLKGNERFEITGTKGKISISWDKIVLNEEEMKVPQENSYQKEFEDFYQVVAEGKPNDLGSPVQALKDLAFIEACVRSAGNKVFVSSLL
- protein production: not failed

Sequence: MSLSDTIPVFDGHNDFLLRLLRNPANRETIWLKGDGTGHLDLPRMKEGGFAGGFFAIYVPSPQAHDAAHFEAMMDAPPFELPLPPMIRAEQAQPVALAMAGHLLWMERAARGRFKVCRTAAEVRSCHADGIVSGIMHMEGAEAIGADLDALHLFHSLGLRSLGPVWSRPTVFGHGVPFRFPGSPDTGEGLTEAGRRLVAECNRLKIMLDLSHLNEKGFDDVARLSDAPLVATHSNAHAVTPSTRNLTDRQLAMIRESRGMVGLNFATSFLREDGRRSAEMGWEPVLRHLDHLIDRLGEDHVGMGSDFDGATIPQGIADVTGLPALQAAMRAHGYDEPLMRKLCHENWYGLLERTWGEGHHHHHH
- protein production: not failed

Sequence: MDQTIHHQIQQALHFRTAVRVYKEEKISDEDLALILDAAWLSPSSIGLEGWRFVVLDNKPIKEEIKPFAWGAQYQLETASHFILLIAEKHARYDSPAIKNSLLRRGIKEGDGLNSRLKLYESFQKEDMDMADNPRALFDWTAKQTYIALGNMMMTAALLGIDTCPIEGFHYDKVNHILAKHNVIDLEKEGIASMLSLGYRLRDPKHAQVRKPKEEVISVVK
- protein production: not failed

Sequence: MTGSVVVAGLGPGAQELITPEVSAALALATDIVGYAPYVARVAERDGLQRHASDNREELDRAGFALRLATEGRHVVIVSSGDPGVFAMAAALFEAIEAGDPSWRELDIRVLPGISAMFATAARIGAPLGHDFCAINLSDNLKPWETVEKRLRAAAEADFVIALYNPISKARPWQLGRAFELLRSIHPASVPVIFATAISDPRERIDVAPLGEAVPQRADMRTLVMIGSSQTRIIPRSSGADFVYTPRFSGAVS
- protein production: failed

Sequence: METTQKDELSSFLSVLPPVDFCCVYGSTLHPNNQDKSKMVDYILGVSDPIKWHSANLKMNSDHYASWMVHLGGARLITNVADKVGVGVHFNPFVNWNDRKLKYGVVRMHDLVQDILDWKRFYLSGRLQKPVHMLVDNLDIEDVNSVNKRAAISAALLLLPSKFTEEDLYAKICSLSYMGDLRMFFAEDTNKVNKIVKGQFDLFQSMYKPFLEECETKNLLRFSSAEASHTKLVQDSSLSATRSLVSSLPASVRSQMGKSLGEKKFVSETGRVMGEVCISSREEAAKCMEKVMRRRVMVSSGRQAVSGFLAAGAINATMYLSQKMRKAWNSRA
- protein production: failed

Sequence: MKTLYDLPIVLRNLPEDLVLEKPLPEVSVTIRAYPEILNNLTKEQISLWIDATGKAVGEHTVKIYWQLPAGIEMVSIPDVTYTLKAKEDPLEHHHHHH
- protein production: failed

Sequence: MQGGMMKQLVVAGFFLLLLTSPLSALDVDTYRSSQKQFNTEDKAEQGDAQAQFELGLKYEKGDGVNKDLKKAIYWYQKAADQGQAEAQNNLGVLYLKGEGVPQNSQQAMYWFKKASEQGLAIGQNNIGILYENGLGVKKDPGQAFIWYQKAAEGGNSDGQYNLAVMYMYGNGIPKDIKKAIHWYIKAAEQGDLDAQNNLGVLYERGEEVPRDLKAAISWYTRAANEGSLIAQTNLGVLYMTGDPSIQDGKKAIYWYEKAAAQGGEKAQNNLGYIYEQGIGTEKDMKKAIYWYEKAAENGFTLAQNNLGVLYSNDGELQDYKKAYLWFKKAADQGFAEAQNNLGLMYMKGNGLSVNYHEAVLWYKRAAEQGLPLAQHNLAIMYMKGLGIKKDNKLAIKWYQKAAEKGLDLAQNNLAVMYIRGEGVKRDFKKAMYWYQKAAEQGLDLAQINLGIMYLDGMGVNKDFAKAKYWIGKAKDSGSQDALTIWNKNKLWKYQ
- protein production: failed

Sequence: MNVNKPTTEKKLIDLNNDIIHNFDVSIVMSFYKRYTEFRKVLPHNAPYLQRNGIEVIIVLDDPDEKSELLMLLQNYPFINWKLIINERKHAPRNHASVLNVGLKHATKKYILQIDPEVEFLTDIIWQMRDAIEKYPMHYILAMMAYVPYEQELTENNIKELDFIPWGNLMVERNHLYKLHGYDETFITWGGEDNNMRARLDMSGIKKFILPEAKTIHREKNYDPNERSKRINKHSISDWRKMNYPSEAIANKDIWGSEFNKVIYDWQDNQYAKDLCYTYLQQFIGFEIRHPAAFRKRHKKIVLCQAYNEEKLIEGFLTNMANYFDGIILLDDESTDRTWDLAIHDKIILKVKKKRSGFNDLENRNILLDLSAFFQSEWFCFMDIDERFDERFTNFSEFENNKEIHVVSFRGVYLWNDEQSYKGDIPNSNKGILTVYRMFRPIGHTHINTHKKLHFIATPYFTNTWQSNILFKDYGSMKENDRIRKYERYIQEDQQKDMSSGYDYLLNSENLYQLDKIEEYLEHHHHHH
- protein production: failed

Sequence: MLGNKVVSSPLVAALVALAVRLLAHNFSHHIHLPYHFGITTSKTGSEIWKEAVFWKQQFGVVPAFLTTVGPWFMEYIPPASSDAYVIFLCLCDALTVYIVSRWPSAKPQLTYALFVLNPIMALLPMLESLAPLEHVLLAVILECCRKRRIHPWLIFAARLLAPLLGFHFIAIIVALWYPVGTPCPKIALVGVALCTACIGGCGMLYLRWWGEHVERTSLYSPPDNGVMWYVRLLIMAAFHRSMEVGQIELPAVLTLIFSTGVPCEKEAAAETMKDGGAIPGDRRLLVTLLAICFSKLFCEHVILADYMITVFFLYSLLEVKGRGGFKSMLDRVRGLNIFLPICTLLLGVPLQYAFYTGWVMWDMANPNWVFFPQVAFVTGGGLFLLAFVNSLVDAMKEECVAGITKEKQA
- protein production: failed

Sequence: MEVRGYKTEVALGKSSNSLLAGGLERRWQRLSGGCLGLLLMLPAVAAAAVYVPNAGQAMRDIQATQPALPEQPAPELDLPAKPPSAPAQAPDTSGIRLQVNDFVIVGNQVFSNETLQALLADLKGQELDLNQLRAAAERLTTYYQNQGYMLARAFLPAQDIEDGVVRIEVMEGRYGRIQVNNQSRALNSVITGPLSSLHSDTAVRSEDLERSLLLLSDLPGVRVKGTLSAGEQRGTTDLLVNAQPGPWASGTLEADNFGGYYTGEYRLGGSLNLNNPLRLGDQFNLRLLGSDEDQRYYRAAYKLPLGPWSTSVGVAYSRMNYELSRDFEVLEAHGQASIGSVFITQPLIRSRTFDLSAQLQYEDKRLRDDIDLFEVSSQKHVELWSLSLNGNSQDSLLGGGQNFFYLTYGSGRLSIDDPMDQWRDHFTAGTNGGFQKLNLNAARLQYLSPRFQLYGQFNGQWSSTNLDSSEKFGIGGPFDVRAYPQGTSSGDQGWQASLELRFLLAPRWQLKAFVDHGAVQVNKSPWIHDENRRQLSGAGVGASWSGPSQQISVTSAWALDNNQEGSGPERTPRIWASATQYF
- protein production: failed

Sequence: MIFLVYDILLLLLSPLILIHHAWRTVSRGRSFAGFGERFGCIAPESLARVAGKGPIWVHAVSVGETMAVKPLLRELKRRFPERPLVLSSVTETGRSVAVTIPEADLVVYFPFDFGFAVARALRLVAPSLVIVVETEIWPNFLRHARRTGIPSVMVNGRISDRSFPRYLRFSRFFAPILNNLSALCMQSSEDARRIIAVGAPAERVHVTRNLKYDLPVRSLTPAERQELLCSYRLPAGALIITAGSTHAGEEEVVADIYARLAGERSDLFLVLVPRHPERAVEVGTLLEGKGIPFVRRSALDKVQEQPRGGVLLVDTIGELMKLYALSDVVFVGGSLVPVGGHNLLEPASVGAPVLFGPHMHNFREITALVLGAGAGEQVNDHGELEATLRRLLADEPARRSMGENGIRLMADQGGAAARHLEIIGPLIERGSEVARLEHHHHHH
- protein production: not failed

Sequence: MTFVLNTFGRLQLVDGQGSLVAFPEKGLLLLVYLLTTGEGSADRTSLARFLWGDADRDVALSTLRKLISRIKARQTELGINILSSQGNMVSLDRESLSSDLLLSETDEAVASFSLLKHLVKLLNQPFLGPVHCHSREFQHWLAEREKSHIDLLANTLKAVSQRAQSRTESELLRKAAIILFRTEPKDPDTLQLLIEIFKAEEEVESLRNHFEQRRISISRGIAVRTASDGGDTKPVLPALAPSREKHATAVSLEPEDISIAIPRLVLLPPRNQSIHPQAGFLAASLVEDITIGFCAFNSLQVIAPYSAVQIGHHMETQKAFFERHHVNYILDTRISNAGDDVTLFAQLIFFDQNQIVWAERFSLDHRDLVKDRRTVSRRIALSISSEIERHEALREDLNPAAYHRYLVGRRHLARLTLPNLRRARKEMKAALSVSPDFAPALSSMARTYSKEWLLTARGDIDLLKTAETLATQATETRPDFADGYREFGVAKLLQGAFDQSAEAMEVAESLAPHYADVIADYADTLVHCSLPAIALRKIERAIELNPLSPDTYFWTAAGANYALGEFEASLDYIGQMADASLADRLAAANWAMLGHQDKARTFVRRFREVNPDFDVDKWLSAVPSKEQWHKDLYREGLKKAGF
- protein production: failed

Sequence: MGHHHHHHSHMTKIIPVASGKGGVGKTSFVANVGYKLSSLGKTVILVDLDLGGSNLHTCLGVKNKGVGIGSFINKKSKSFSDLVCKTSYDKLYLIPGDALYTGTANLPFSIKKKIIESIQKDLIADFIFLDLGSGTSYNTIDFYLASYSGVIVTIPETPSILNAYSFLKNALYRLLYLGFP
- protein production: failed

Sequence: MFCEKAMELIRELHRAPEGQLPAFNEDGLRQVLEEMKALYEQNQSDVNEAKSGGRSDLIPTIKFRHCSLLRNRRCTVAYLYDRLLRIRALRWEYGSILPNALRFHMAAEEMEWFNNYKRSLATYMRSLGGDEGLDITQDMKPPKSLYIEVRCLKDYGEFEVDDGTSVLLKKNSQHFLPRWKCEQLIRQGVLEHILS
- protein production: failed

Sequence: MTMDGDSSTTDASQLGISADYIGGSHYVIQPHDDTEDSMNDHEDTNGSKESFREQDIYLPIANVARIMKNAIPQTGKIAKDAKECVQECVSEFISFITSEASERCHQEKRKTINGEDILFAMSTLGFDSYVEPLKLYLQKFREAMKGEKGIGGAVTATDGLSEELTEEAFTNQLPAGLITTDGQQQNVMVYTTSYQQISGVQQIQFS
- protein production: failed

Sequence: MKTDVRWATFNIRYDNPQDSLNNWQYRKDRVCQFIKDHELDIVGMQEVLHNQFQDLRAGLPEYDGIGVGRDDGKTAGEYAPLFYRKDKYEVLDSNTFWLAENPDSVGMMGWDAVCVRIATWAKFKDKATGKIFMAVNTHFDHVGEEARRQSALLIIRKIKEIVGERPAVVTGDFNVTDASDAYETITTNEFVMKDAYKTAARVTGVDYTFHDFARIPAEDCEKIDFIFVTPQVLVKSCEIPAEVPEALLSDHNPQLADLELEHHHHHH
- protein production: not failed
